Experimental data reported in patent US20240092919A1 (Ablynx, published 2024).

T1: Human T cell receptor on human primary T cells (human, UniProt P01848 1-140; P01850 1-176)
T1 TCR alpha (looked up): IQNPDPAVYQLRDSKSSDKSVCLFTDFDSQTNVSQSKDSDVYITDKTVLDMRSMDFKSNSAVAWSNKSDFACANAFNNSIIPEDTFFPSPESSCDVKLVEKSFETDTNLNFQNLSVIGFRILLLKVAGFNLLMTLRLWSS
T1 TCR beta (looked up): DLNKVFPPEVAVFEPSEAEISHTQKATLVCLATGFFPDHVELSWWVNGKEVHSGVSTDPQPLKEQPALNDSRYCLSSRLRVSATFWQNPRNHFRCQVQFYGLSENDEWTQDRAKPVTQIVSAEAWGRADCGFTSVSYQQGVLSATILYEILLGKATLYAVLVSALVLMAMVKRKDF

T2: Cynomolgus TCR(AEA41865/AEA41866)-zipper protein (cynomolgus monkey)
T2 construct: also called cyTCR-zipper protein; cynoTCR zipper
T2 TCR alpha: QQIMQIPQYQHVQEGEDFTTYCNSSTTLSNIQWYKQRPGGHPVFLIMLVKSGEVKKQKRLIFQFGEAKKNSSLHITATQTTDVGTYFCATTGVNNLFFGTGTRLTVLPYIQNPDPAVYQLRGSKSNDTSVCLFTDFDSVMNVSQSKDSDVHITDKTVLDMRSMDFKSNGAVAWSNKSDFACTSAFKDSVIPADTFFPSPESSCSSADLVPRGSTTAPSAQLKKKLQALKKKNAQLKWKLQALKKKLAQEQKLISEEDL
T2 TCR beta: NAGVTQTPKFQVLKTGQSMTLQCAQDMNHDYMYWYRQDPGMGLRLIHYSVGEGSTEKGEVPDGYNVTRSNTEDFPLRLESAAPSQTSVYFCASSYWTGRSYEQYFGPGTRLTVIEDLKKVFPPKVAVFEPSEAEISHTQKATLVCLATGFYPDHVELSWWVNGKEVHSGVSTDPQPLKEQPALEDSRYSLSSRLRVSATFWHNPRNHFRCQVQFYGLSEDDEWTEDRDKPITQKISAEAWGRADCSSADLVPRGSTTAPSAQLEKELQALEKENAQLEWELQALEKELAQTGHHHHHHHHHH

T3: human T cell receptor on human primary T cells (human, UniProt P01848 1-140; P01850 1-176)
T3 construct: whole, on cells
T3 TCR alpha (looked up): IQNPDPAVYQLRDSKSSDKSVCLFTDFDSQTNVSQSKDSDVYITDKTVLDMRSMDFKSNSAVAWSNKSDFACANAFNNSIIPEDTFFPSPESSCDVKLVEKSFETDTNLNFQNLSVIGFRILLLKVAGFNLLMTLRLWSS
T3 TCR beta (looked up): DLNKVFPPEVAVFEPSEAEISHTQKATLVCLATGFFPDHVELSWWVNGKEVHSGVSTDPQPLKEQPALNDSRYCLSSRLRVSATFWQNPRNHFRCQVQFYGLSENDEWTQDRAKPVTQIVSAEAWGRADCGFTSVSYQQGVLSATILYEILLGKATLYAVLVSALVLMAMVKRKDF


Legend:
[1] = molecular target: T1, Human T cell receptor on human primary …; assay: cell-based or functional assay
[2] = molecular target: T4, Cynomolgus T cell receptor on cynomolgus primary T cells (cynomolgus monkey); assay: cell-based or functional assay
[3] = molecular target: T1, Human T cell receptor on human primary …; assay: cell-based or functional assay
[4] = molecular target: T4, Cynomolgus T cell receptor on …; assay: cell-based or functional assay; remark: listed apart in the source
[5] = molecular target: T1, Human T cell receptor on human primary …; assay: cell-based or functional assay
[6] = molecular target: T4, Cynomolgus T cell receptor on …; assay: cell-based or functional assay; remark: listed apart in the source
[7] = molecular target: T1, Human T cell receptor on human primary …; assay: cell-based or functional assay
[8] = molecular target: T4, Cynomolgus T cell receptor on …; assay: cell-based or functional assay; remark: listed apart in the source
[9] = molecular target: T2, Cynomolgus …; assay: SPR, ProteOn XPR36, 25 C, immobilised TCR-zipper
Text: HuTCR-zipper or cyTCR-zipper protein was immobilized on a GLC sensor chip (between 100-200 RU) via amine coupling chemistry, using EDC/NHS for activation of the carboxyl groups on the chip surface (running buffer: HBS-EP+, pH7.4). […] Processed sensorgrams were fitted with the Langmuir model (1:1 interaction) using ProteOn Manager 3.1.0 (Version 3.1.0.6) software.

[10] = molecular target: T3, human T cell receptor on human primary …; assay: flow cytometry, human primary T cells
Experimental: Dose-dependent binding of the purified monovalent ISVD variants to CHO-K1 huTCR(2XN9)/huCD3 overexpressing cells or human primary T cells was evaluated by flow cytometry. […] Next, cells were washed 3 times with FACS buffer and incubated with 1 μg/ml THE™ His Tag Antibody, mAb, Mouse (Genscript, A00186) and washed again. […] Subsequently, cells were resuspended in FACS buffer supplemented with 5 nM TO-PRO®-3 Iodide to distinguish live from dead cells, which are removed during the gating procedure. Cells were analyzed using a FACS Array flow cytometer (BD Biosciences) and Flowing Software. First a P1 population which represented more than 80% of the total cell population was selected based on FSC-SSC distribution. In this gate, 10000 cells were counted during acquisition. From this population the TO-PRO®-3+ cells (dead cells) were excluded and the mean fluorescence intensity (MFI) PE value was calculated.

[11] = molecular target: T2, Cynomolgus …; assay: higher koff divided by lower koff, humanTCR zipper vs cynoTCR zipper (SPR)
[12] = molecular target: T1, Human T cell receptor on human primary …; assay: flow cytometry, human primary T cells
For % Lysis, T cell mediated MOLM-13 cell killing, cynomolgus primary T cells, E:T 10:1 in this document: test concentration or dose not given here.
For % Lysis, T cell mediated MOLM-13 cell killing, human primary T cells, E:T 10:1 in this document: test concentration or dose not given here.

Row | Binder | % Lysis, T cell mediated MOLM-13 cell killing, human primary T cells, E:T 10:1 [1] [%] | EC50 (M), T cell mediated MOLM-13 cell killing, human primary T cells, E:T 10:1 [1] [M] | % Lysis, T cell mediated MOLM-13 cell killing, cynomolgus primary T cells, E:T 10:1 [2] [%] | EC50 (M), T cell mediated MOLM-13 cell killing, cynomolgus primary T cells, E:T 10:1 [2] [M] | % lysis, MOLM-13, Human T cell mediated killing [3] [%] | EC50 (M), MOLM-13, Human T cell mediated killing [3] [M] | % lysis, MOLM-13, Cynomolgus T cell mediated killing [4] [%] | EC50 (M), MOLM-13, Cynomolgus T cell mediated killing [4] [M] | % lysis, KG-1a, Human T cell mediated killing [5] [%] | EC50 (M), KG-1a, Human T cell mediated killing [5] [M] | % lysis, KG-1a, Cynomolgus T cell mediated killing [6] [%] | EC50 (M), KG-1a, Cynomolgus T cell mediated killing [6] [M] | IC50 (M), xCELLigence CHO Flp-In huCD123 cell killing, Human T cell mediated killing [7] [M] | IC50 (M), xCELLigence CHO Flp-In huCD123 cell killing, Cynomolgus T cell mediated killing [8] [M] | Kd [9] [nM] | EC50 [10] [nM] | Gap in off-rate human vs cyno [11] [fold] | EC50 [12] [nM]
1 | T017000128 (bispecific antibody) DVQLVESGGGLVQPGGSLRLSCVASGDVHKINFLGWYRQAPGKEREKVAHISIGDQTDYADSAKGRFTISRDESKNMVYLQMNSLKPEDTAVYFCRAFSRIYPYDYWGQGTLVTVSSGGGGSGGGGSGGGGSGGGGSGGGGSGGGGSGGGGSEVQLVESGGGLVQAGGSLRLSCAASGITSKINDMGWYRQTPGNYREWVASITATGTTNYRDSVKGRFTISRDNAKSTVYLQMNSLKPEDTTVYYCNTFPPISNFWGQGTLVTVSSA | 32 | 2.3e-10 | 37 | 1.7e-10 | 24 | 3e-10 | 37 | 4.1e-10 | 51 | 1.3e-09 | 61 | 6.7e-10 | 1.4e-11 | 1.9e-11 | – | – | – | –
2 | T017000633 (bispecific antibody) DVQLVESGGGVVQPGGSLRLSCVASGYVHKINFYGWYRQAPGKEREKVAHISIGDQTDYADSAKGRFTISRDESKNTVYLQMNSLRPEDTALYYCRALSRIWPYDYWGQGTLVTVSSGGGGSGGGGSGGGGSGGGGSGGGGSGGGGSGGGGSEVQLVESGGGLVQAGGSLRLSCAASGITSKINDMGWYRQTPGNYREWVASITATGTTNYRDSVKGRFTISRDNAKSTVYLQMNSLKPEDTTVYYCNTFPPISNFWGQGTLVTVSSA | 31 | 1.2e-10 | 35 | 5.2e-11 | 26 | 1.8e-10 | 44 | – | 56 | 6.8e-10 | 64 | 3.4e-10 | 9.1e-12 | 5.1e-12 | 17 | – | – | –
3 | T017000131 (bispecific antibody, also called A0110056A10(E1D)-35GS-T0170056G05-A) DVQLVESGGGLVQAGGSLRLSCAASGITSKINDMGWYRQTPGNYREWVASITATGTTNYRDSVKGRFTISRDNAKSTVYLQMNSLKPEDTTVYYCNTFPPISNFWGQGTLVTVSSGGGGSGGGGSGGGGSGGGGSGGGGSGGGGSGGGGSEVQLVESGGGLVQPGGSLRLSCVASGDVHKINFLGWYRQAPGKEREKVAHISIGDQTDYADSAKGRFTISRDESKNMVYLQMNSLKPEDTAVYFCRAFSRIYPYDYWGQGTLVTVSSA | 20 | 1.3e-09 | 14 | 9e-10 | 20 | – | 14 | 8.9e-10 | 29 | 2.4e-09 | 14 | 1.6e-09 | 3.4e-11 | 8.1e-11 | 1600 | – | – | –
4 | T017000634 (bispecific antibody, also called A0110056A10(E1D)-35GS-T0170056G05(L11V, D27Y, L34Y, M77T, K83R, V89L, F91Y, F95L, Y99W)-A) DVQLVESGGGLVQAGGSLRLSCAASGITSKINDMGWYRQTPGNYREWVASITATGTTNYRDSVKGRFTISRDNAKSTVYLQMNSLKPEDTTVYYCNTFPPISNFWGQGTLVTVSSGGGGSGGGGSGGGGSGGGGSGGGGSGGGGSGGGGSEVQLVESGGGVVQPGGSLRLSCVASGYVHKINFYGWYRQAPGKEREKVAHISIGDQTDYADSAKGRFTISRDESKNTVYLQMNSLRPEDTALYYCRALSRIWPYDYWGQGTLVTVSSA | – | 1.4e-10 | 32 | 1.2e-10 | 22 | 2.5e-10 | 33 | 2.1e-10 | 49 | 4.4e-10 | 41 | 2.7e-10 | 1.1e-11 | 1.9e-11 | 200 | – | – | –
5 | T017000351 (VHH, not shown: small tags and cut ends, also called T0170000351) VHH: EVQLVESGGGVVQPGGSLRLSCVASGDVHKINFLGWYRQAPGKEREKVAHISIGDQTDYADSAKGRFTISRDESKNMVYLQMNSLRPEDTALYFCRAFSRIYPYDYWGQGTLVTVSS | – | – | – | – | – | – | – | – | – | – | – | – | – | – | – | 110 | – | –
6 | T017000625 (VHH, not shown: small tags and cut ends) VHH: EVQLVESGGGVVQPGGSLRLSCVASYDVHKINFYGWYRQAPGKEREKVAHISIGDQTDYADSAKGRFTISRDESKNTVYLQMNSLRPEDTALYYCRALSKIWPYDYWGQGTLVTVSS | – | – | – | – | – | – | – | – | – | – | – | – | – | – | – | – | 1 | 230
7 | T017000635 (VHH, not shown: small tags and cut ends) VHH: EVQLVESGGGVVQPGGSLRLSCVASWDVHQINFYGWYRQAPGKEREKVAHISIGDQTDYADSAKGRFTISRDESKNTVYLQMNSLRPEDTALYYCRALSRIWPYDYWGQGTLVTVSS | – | – | – | – | – | – | – | – | – | – | – | – | – | – | – | – | > 55.9 | 70
8 | T017000641 (VHH, not shown: small tags and cut ends) VHH: EVQLVESGGGVVQPGGSLRLSCVASWDVHKINFYTWYRQAPGKEREKVAHISIGDQTDYADSAKGRFTISRDESKNTVYLQMNSLRPEDTALYYCRALSKIWPYDYWGQGTLVTVSS | – | – | – | – | – | – | – | – | – | – | – | – | – | – | – | – | 1.1 | 270
9 | T017000691 (VHH, not shown: small tags and cut ends) VHH: EVQLVESGGGVVQPGGSLRLSCVASWEVHQINFYGWYRQAPGKEREKVAHISIGDQTDYADSAKGRFTISRDESKNTVYLQMNSLRPEDTALYYCRALSRIWPYDYWGQGTLVTVSS | – | – | – | – | – | – | – | – | – | – | – | – | – | – | – | – | > 61.1 | 150
10 | T017000623 (VHH, not shown: small tags and cut ends) VHH: EVQLVESGGGVVQPGGSLRLSCVASWDVHKINFYGWYRQAPGKEREKVAHISIGDQTDYADSAKGRFTISRDESKNTVYLQMNSLRPEDTALYYCRALSKIWPYDYWGQGTLVTVSS | – | – | – | – | – | – | – | – | – | – | – | – | – | – | – | – | 1 | 280
